Assay results published in patent US7083949.

Biological target: T1, Protein A (UniProt P38507 37-477)
T1 construct: Precipitation reagent; also called Protein A-Sepharose
Assay: Protein A-Sepharose precipitation, anti-kappa western blot
Procedure: In a different set of experiments the ability of the ligand Traps to multimerize in the presence of ligand was tested.

B1: gp130-CH1•IL-6Rα-κ (other)
chain 1: ELLDPCGYISPESPVVQLHSNFTAVCVLKEKCMDYFHVNANYIVWKTNHFTIPKEQYTIINRTASSVTFTDIASLNIQLTCNILTFGQLEQNVYGITIISGLPPEKPKNLSCIVNEGKKMRCEWDGGRETHLETNFTLKSEWATHKFADCKAKRDTPTSCTVDYSTVYFVNIEVWVEAENALGKVTSDHINFDPVYKVKPNPPHNLSVINSEELSSILKLTWTNPSIKSVIILKYNIQYRTKDASTWSQIPPEDTASTRSSFTVQDLKPFTEYVFRIRCMKEDGKGYWSDWSEEASGITYEDRPSKAPSFWYKIDPSHTQGYRTVQLVWKTLPPFEANGKILDYEVTLTRWKSHLQNYTVNATKLTVNLTNDRYLATLTVRNLVGKSDAAVLTIPACDFQATHPVMDLKAFPKDNMLWVEWTTPRESVKKYILEWCVLSDKAPCITDWQQEDGTVHRTYLRGNLAESKCYLITVTPVYADGPGSPESIKAYLKQAPPSKGPTVRTKKVGKNEAVLEWDQLPVDVQNGFIRNYTIFYRTIIGNETAVNVDSSHTEYTLSSLTSDTLYMVRMAAYTDEGGKDGPEFTFTTPKFAQGEIESGGQGTLVTVSSASTKGPSVFPLAPSSKSTSGGTAALGCLVKDYFPEPVTVSWNSGALTSGVHTFPAVLQSSGLYSLSSVVTVPSSSLGTQTYICNVNHKPSNTKVDKKVEPKSCDKTHT
chain 2: LAPRRCPAQEVARGVLTSLPGDSVTLTCPGVEPEDNATVHWVLRKPAAGSHPSRWAGMGRRLLLRSVQLHDSGNYSCYRAGRPAGTVHLLVDVPPEEPQLSCFRKSPLSNVVCEWGPRSTPSLTTKAVLLVRKFQNSPAEDFQEPCQYSQESQKFSCQLAVPEGDSSFYIVSMCVASSVGSKFSKTQTFQGCGILQPDPPANITVTAVARNPRWLSVTWQDPHSWNSSFYRLRFELRYRAERSKTFTTWMVKDLQHHCVIHDAWSGLRHVVQLRAQEEFGQGEWSEWSPEAMGTPWTESRSPPAENEVSTPMQALTTNKDDDNILFRDSANATSLPVQDAGTVAAPSVFIFPPSDEQLKSGTASVVCLLNNFYPREAKVQWKVDNALQSGNSQESVTEQDSKDSTYSLSSTLTLSKADYEKHKVYACEVTHQGLSSPVTKSFNRGEC
notes: the experiment prints gp130-CH1; also called G16K
B1: no binding.
